Source: the supplement of paper PMC10126150
± gives the standard deviation of the averaged measurements.

Tested on: ATP
Test: switch fluorescence ratio, 500 uM ATP over buffer (Cy3 cluster intensity, sum of 5 cycles each) (fold (ratio)); higher = stronger signal-on switching upon ATP binding; sequences stand for … in TCGTCGGCAGCGTCAGATGTGTATAAGAGACAGTTTTTTTTTTTTTTTTTTTTTTTTT…TC
Details: aptamer strand: ATP DNA aptamer (quencher-CACCTGGGGGAGTATTGCGGAGGAAGG + anchor), 100 nM annealed; ATP concentration: 500 uM
In short: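 Values give the fluorescence ratio for each switch-domain sequence, averaged from per-cluster ratios of summed target-cycle to summed buffer-cycle Cy3 intensity. The Cy3-labelled switching-strand clusters sat on a modified Illumina MiSeq flow-cell, were annealed to 100 nM quencher-labelled ATP aptamer, and were imaged in selection buffer, then after 15 min with 500 uM ATP at 22 °C. Five cycles ran with NaOH stripping and re-annealing between them, and clusters outside 100-1000 RFU were excluded.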
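Also: ATP exposure 15 min at 22 °C before imaging.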

Question: CGTGTTTTTT was tested. Which switch fluorescence ratio did it give?
Answer: Its switch fluorescence ratio is 0.991 ± 0.029.

Question: CGTTAAATGT was tested. Which switch fluorescence ratio did it give?
Answer: The switch fluorescence ratio was 0.998 ± 0.022.

Question: For CGTTAAGTTA, which switch fluorescence ratio is on record?
Answer: The switch fluorescence ratio was 0.974 ± 0.012.

Question: For CGTTAATTAG, which switch fluorescence ratio is on record?
Answer: Its switch fluorescence ratio is 1.02 ± 0.042.

Question: How did the switch fluorescence ratio turn out when CGTTAATTTA was run?
Answer: The switch fluorescence ratio was 1.01 ± 0.034.

Question: For CGTTACAAGC, which switch fluorescence ratio is on record?
Answer: Its switch fluorescence ratio is 1.1 ± 0.086.

Question: Which switch fluorescence ratio does the source give for CGTTACACAA here?
Answer: The switch fluorescence ratio was 1.04 ± 0.035.

Question: How did the switch fluorescence ratio turn out when CGTTAGCAGA was run?
Answer: Its switch fluorescence ratio is 1.19 ± 0.086.

Question: Which switch fluorescence ratio does the source give for CGTTAGCATT here?
Answer: Its switch fluorescence ratio is 1.17 ± 0.027.

Question: For CGTTAGGATG, which switch fluorescence ratio is on record?
Answer: The switch fluorescence ratio was 0.984 ± 0.011.

Question: With CGTTATGAGG as the sequence, how does the switch fluorescence ratio read?
Answer: The switch fluorescence ratio was 0.991 ± 0.011.

Question: Which switch fluorescence ratio does the source give for CGTTATTAGC here?
Answer: The switch fluorescence ratio was 1.033 ± 0.01.

Question: Which switch fluorescence ratio does the source give for CGTTATTGCT here?
Answer: Its switch fluorescence ratio is 1.016 ± 0.0039.

Question: With CGTTCATGGG as the sequence, how does the switch fluorescence ratio read?
Answer: The switch fluorescence ratio was 0.993 ± 0.017.

Question: Which switch fluorescence ratio does the source give for CGTTCCGGGC here?
Answer: The switch fluorescence ratio was 1.2 ± 0.12.

Question: With CGTTCGCGCG as the sequence, how does the switch fluorescence ratio read?
Answer: The switch fluorescence ratio was 1.02 ± 0.023.

Question: How did the switch fluorescence ratio turn out when CGTTCGTGGG was run?
Answer: Its switch fluorescence ratio is 0.953 ± 0.018.

Question: For CGTTCTATTC, which switch fluorescence ratio is on record?
Answer: Its switch fluorescence ratio is 1.11 ± 0.17.

Question: For CGTTGAGACC, which switch fluorescence ratio is on record?
Answer: The switch fluorescence ratio was 0.995 ± 0.019.

Question: With CGTTGAGTAT as the sequence, how does the switch fluorescence ratio read?
Answer: The switch fluorescence ratio was 0.981 ± 0.019.

Question: Which switch fluorescence ratio does the source give for CGTTGAGTTG here?
Answer: Its switch fluorescence ratio is 0.986 ± 0.032.

Question: With CGTTGAGTTT as the sequence, how does the switch fluorescence ratio read?
Answer: The switch fluorescence ratio was 0.994 ± 0.047.

Question: For CGTTGCACAT, which switch fluorescence ratio is on record?
Answer: The switch fluorescence ratio was 1.07 ± 0.016.

Question: Which switch fluorescence ratio does the source give for CGTTGCGAGT here?
Answer: Its switch fluorescence ratio is 0.9726 ± 0.009.

Question: For CGTTGCGCTA, which switch fluorescence ratio is on record?
Answer: Its switch fluorescence ratio is 1.1 ± 0.012.

Question: Which switch fluorescence ratio does the source give for CGTTGCTACA here?
Answer: Its switch fluorescence ratio is 1.01 ± 0.019.

Question: Which switch fluorescence ratio does the source give for CGTTGGAAGC here?
Answer: The switch fluorescence ratio was 0.982 ± 0.018.

Question: CGTTGGAATC was tested. Which switch fluorescence ratio did it give?
Answer: The switch fluorescence ratio was 1.12 ± 0.014.

Question: Which switch fluorescence ratio does the source give for CGTTGGCATA here?
Answer: Its switch fluorescence ratio is 1.149 ± 0.0065.

Question: With CGTTGGCGGT as the sequence, how does the switch fluorescence ratio read?
Answer: Its switch fluorescence ratio is 1.02 ± 0.043.

Question: With CGTTGGGATC as the sequence, how does the switch fluorescence ratio read?
Answer: Its switch fluorescence ratio is 0.99281 ± 0.00021.

Question: With CGTTGGGGGA as the sequence, how does the switch fluorescence ratio read?
Answer: Its switch fluorescence ratio is 0.997 ± 0.029.

Question: Which switch fluorescence ratio does the source give for CGTTGGTGCG here?
Answer: Its switch fluorescence ratio is 0.98 ± 0.059.

Question: With CGTTGGTTCC as the sequence, how does the switch fluorescence ratio read?
Answer: The switch fluorescence ratio was 1.034 ± 0.0058.

Question: CGTTGTGGGG was tested. Which switch fluorescence ratio did it give?
Answer: Its switch fluorescence ratio is 0.966 ± 0.023.

Question: CGTTTAAATC was tested. Which switch fluorescence ratio did it give?
Answer: Its switch fluorescence ratio is 0.986 ± 0.013.

Question: CGTTTACCGT was tested. Which switch fluorescence ratio did it give?
Answer: The switch fluorescence ratio was 0.983 ± 0.019.

Question: How did the switch fluorescence ratio turn out when CGTTTATAGG was run?
Answer: Its switch fluorescence ratio is 1.015 ± 0.009.

Question: With CGTTTATAGT as the sequence, how does the switch fluorescence ratio read?
Answer: The switch fluorescence ratio was 1.02 ± 0.039.

Question: For CGTTTCATTT, which switch fluorescence ratio is on record?
Answer: The switch fluorescence ratio was 0.995 ± 0.027.

Question: CGTTTCCCGG was tested. Which switch fluorescence ratio did it give?
Answer: The switch fluorescence ratio was 0.992 ± 0.031.

Question: How did the switch fluorescence ratio turn out when CGTTTCGTCT was run?
Answer: Its switch fluorescence ratio is 1.05 ± 0.024.

Question: How did the switch fluorescence ratio turn out when CGTTTGAAGC was run?
Answer: Its switch fluorescence ratio is 0.978 ± 0.059.

Question: For CGTTTGATTA, which switch fluorescence ratio is on record?
Answer: The switch fluorescence ratio was 0.989 ± 0.017.

Question: For CGTTTGGAAT, which switch fluorescence ratio is on record?
Answer: The switch fluorescence ratio was 1.03 ± 0.051.

Question: Which switch fluorescence ratio does the source give for CGTTTGGACA here?
Answer: Its switch fluorescence ratio is 0.9893 ± 0.0051.

Question: Which switch fluorescence ratio does the source give for CGTTTGGCGG here?
Answer: The switch fluorescence ratio was 0.987 ± 0.064.

Question: For CGTTTGTATA, which switch fluorescence ratio is on record?
Answer: Its switch fluorescence ratio is 0.987 ± 0.015.

Question: For CGTTTGTGAT, which switch fluorescence ratio is on record?
Answer: Its switch fluorescence ratio is 0.9993 ± 0.0076.

Question: For CGTTTGTGCG, which switch fluorescence ratio is on record?
Answer: The switch fluorescence ratio was 1.01 ± 0.053.

Question: For CGTTTGTTAT, which switch fluorescence ratio is on record?
Answer: The switch fluorescence ratio was 1.05 ± 0.04.

Question: Which switch fluorescence ratio does the source give for CGTTTGTTCG here?
Answer: Its switch fluorescence ratio is 1.03 ± 0.071.

Question: With CGTTTTGAGG as the sequence, how does the switch fluorescence ratio read?
Answer: Its switch fluorescence ratio is 0.96 ± 0.034.

Question: Which switch fluorescence ratio does the source give for CGTTTTGGCA here?
Answer: Its switch fluorescence ratio is 1.02 ± 0.027.

Question: Which switch fluorescence ratio does the source give for CGTTTTGTGA here?
Answer: The switch fluorescence ratio was 1 ± 0.0054.

Question: For CGTTTTTAGT, which switch fluorescence ratio is on record?
Answer: Its switch fluorescence ratio is 1.002 ± 0.0072.

Question: With CGTTTTTGCC as the sequence, how does the switch fluorescence ratio read?
Answer: Its switch fluorescence ratio is 1.0037 ± 0.00025.

Question: CTAAAAACGG was tested. Which switch fluorescence ratio did it give?
Answer: Its switch fluorescence ratio is 1.002 ± 0.01.

Question: How did the switch fluorescence ratio turn out when CTAAAATGAA was run?
Answer: Its switch fluorescence ratio is 1.03 ± 0.018.

Question: CTAAACCTGG was tested. Which switch fluorescence ratio did it give?
Answer: Its switch fluorescence ratio is 1.13 ± 0.034.

Question: For CTAAAGGTTT, which switch fluorescence ratio is on record?
Answer: The switch fluorescence ratio was 1.004 ± 0.003.

Question: Which switch fluorescence ratio does the source give for CTAAATAGAA here?
Answer: The switch fluorescence ratio was 0.983 ± 0.074.

Question: Which switch fluorescence ratio does the source give for CTAAATAGCA here?
Answer: Its switch fluorescence ratio is 1.01 ± 0.016.

Question: With CTAAATCGGC as the sequence, how does the switch fluorescence ratio read?
Answer: Its switch fluorescence ratio is 1.03 ± 0.035.

Question: Which switch fluorescence ratio does the source give for CTAAATGAGC here?
Answer: Its switch fluorescence ratio is 0.979 ± 0.02.

Question: For CTAAATTTC, which switch fluorescence ratio is on record?
Answer: Its switch fluorescence ratio is 1.02 ± 0.08.

Question: CTAACGCCTT was tested. Which switch fluorescence ratio did it give?
Answer: The switch fluorescence ratio was 1.13 ± 0.042.

Question: For CTAACGTGAG, which switch fluorescence ratio is on record?
Answer: Its switch fluorescence ratio is 1.02 ± 0.034.

Question: For CTAACTTGCG, which switch fluorescence ratio is on record?
Answer: The switch fluorescence ratio was 0.995 ± 0.014.

Question: CTAAGCAGGG was tested. Which switch fluorescence ratio did it give?
Answer: The switch fluorescence ratio was 1.01 ± 0.016.

Question: With CTAAGGTAAG as the sequence, how does the switch fluorescence ratio read?
Answer: The switch fluorescence ratio was 0.981 ± 0.049.

Question: Which switch fluorescence ratio does the source give for CTAATACTAG here?
Answer: Its switch fluorescence ratio is 0.982 ± 0.047.

Question: With CTAATGAGGG as the sequence, how does the switch fluorescence ratio read?
Answer: The switch fluorescence ratio was 1.02 ± 0.036.

Question: With CTAATGCGGA as the sequence, how does the switch fluorescence ratio read?
Answer: Its switch fluorescence ratio is 1.01 ± 0.019.

Question: With CTAATGGAGG as the sequence, how does the switch fluorescence ratio read?
Answer: Its switch fluorescence ratio is 1.01 ± 0.011.

Question: With CTAATGGGTG as the sequence, how does the switch fluorescence ratio read?
Answer: Its switch fluorescence ratio is 1.02 ± 0.02.

Question: With CTAATTGCAA as the sequence, how does the switch fluorescence ratio read?
Answer: The switch fluorescence ratio was 1.05 ± 0.066.

Question: For CTAATTGGCG, which switch fluorescence ratio is on record?
Answer: The switch fluorescence ratio was 1.02 ± 0.04.

Question: How did the switch fluorescence ratio turn out when CTAATTTCGT was run?
Answer: The switch fluorescence ratio was 0.992 ± 0.014.

Question: For CTAATTTTGT, which switch fluorescence ratio is on record?
Answer: The switch fluorescence ratio was 0.995 ± 0.014.

Question: How did the switch fluorescence ratio turn out when CTACGGCATA was run?
Answer: Its switch fluorescence ratio is 3.11 ± 0.11.

Question: For CTACGGGGTG, which switch fluorescence ratio is on record?
Answer: The switch fluorescence ratio was 1.01 ± 0.046.

Question: CTACTAGAGC was tested. Which switch fluorescence ratio did it give?
Answer: The switch fluorescence ratio was 1.02 ± 0.044.

Question: Which switch fluorescence ratio does the source give for CTACTTTGGG here?
Answer: Its switch fluorescence ratio is 1.01 ± 0.027.

Question: How did the switch fluorescence ratio turn out when CTAGAAGGGA was run?
Answer: Its switch fluorescence ratio is 0.9965 ± 0.0049.
